Changes are numbered by the printed parent chain. Some results are limits rather than exact numbers.

B1: human plasmin (protein)
chain: KVYLSECKTGNGKNYRGTMSKTKNGITCQKWSSTSPHRPRFSPATHPSEGLEENYCRNPDNDPQGPWCYTTDPEKRYDYCDILECEEECMHCSGENYDGKISKTMSGLECQAWDSQSPHAHGYIPSKFPNKNLKKNYCRNPDRELRPWCFTTDPNKRWELCDIPRCTTPPPSSGPTYQCLKGTGENYRGNVAVTVSGHTCQHWSAQTPHTHNRTPENFPCKNLDENYCRNPDGKRAPWCHTTNSQVRWEYCKIPSCDSSPVSTEQLAPTAPPELTPVVQDCYHGDGQSYRGTSSTTTTGKKCQSWSSMTPHRHQKTPENYPNAGLTMNYCRNPDADKGPWCFTTDPSVRWEYCNLKKCSGTEASVVAPPPVVLLPDVETPSEEDCMFGNGKGYRGKRATTVTGTPCQDWAAQEPHRHSIFTPETNPRAGLEKNYCRNPDGDVGGPWCYTTNPRKLYDYCDVPQCAAPSFDCGKPQVEPKKCPGRVVGGCVAHPHSWPWQVSLRTRFGMHFCGGTLISPEWVLTAAHCLEKSPRPSSYKVILGAHQEVNLEPHVQEIEVSRLFLEPTRKDIALLKLSSPAVITDKVIPACLPSPNYVVADRTECFITGWGETQGTFGAGLLKEAQLPVIENKVCNRYEFLNGRVQSTELCAGHLAGGTDSCQGDSGGPLVCFEKDKYILQGVTSWGLGCARPNKPGVYVRVSRFVTWIEGVMRNN
B2: QS4 (protein)
chain: MHSFCAFKADDGPCKARFERFFFNIFTRQCEQFYYGGCDGNQNRFESLEECKKMCTRD
B3: SPI51 (protein)
chain: B2 chain with D11A, K15R, R17K, E31T, Q32A, Y34F, D39G
B4: SPI11 (protein)
chain: MHSFCAFKAETGPCRARFDRWFFNIFTRQCEEFIYGGCEGNQNRFESLEECKKMCTRD
B5: SPI23 (protein)
chain: B4 chain with T11G, R17K, D19Q
B6: SPI22 (protein)
chain: B2 chain with D11G, A16G, R17K, E19P, Q32E, Y34I, D39E
B7: SPI54 (protein)
chain: B4 chain with E10D, T11S, E31T, E32R, I34P, E39G
B8: SPI43 (protein)
chain: B4 chain with A16G, R17K, E32S, I34H, E39K
B9: SPI47 (protein)
chain: B4 chain with E10D, T11A, R17K, D19E, W21F

For the first experiment, the target named is BPTI (Bos taurus).
Consider B1, for which the dissociation constant Kd was 0.3 nM.

Another experiment concerns the target B1.
Regarding B2, binding was put at a Kd of 2 nM.
Molecule B3 registered a Kd of around 0.5 nM.
B4 gave a Kd of 0.088 nM. In other words, the picomolar range.
On the same count and under the same terms, for B5 the value was around 0.5 nM; for B6, above 2 nM.
Molecule B7 displayed a dissociation constant Kd above 4 nM.
Still for that read-out and setting: with B8 the figure was above 4 nM; with B9, around 0.8 nM.

The target of the next experiment is B1. This is another data set of the same source.
B4 registered an inhibition constant (Ki) of 0.088 nM.

Values taken from US20050186649 (published 2005).
